Data from patent US6017533.
No end group written: not given here.

Tests used:
[1] = molecular target: PACAP receptor in rat brain crude membrane (rat); test: displacement of [^125 I]MAX from rat brain crude membranes
[2] = molecular target: PACAP receptor in rat brain crude membrane (rat); test: displacement of [^125 I]PACAP 27 from rat brain crude membranes
[3] = molecular target: PACAP receptor in rat brain crude membrane (rat); test: displacement of [^125 I]MAX and [^125 I]PACAP 27 from rat brain crude membranes; reference M65

| Molecule | IC50 [1] | IC50 [2] | fold of IC50 against M65 [3] |
| --- | --- | --- | --- |
| M65 (SEQ ID NO: 3) (peptide) | 2.96 nM | 5.96 nM |  |
| HSDGIFTDSYSRYRKQMAVKKYLAAVL-NH2 (ligand) [PACAP 27 (SEQ ID NO: 5-NH2)] | 2.16 nM | 9.55 nM |  |
| HSDGIFTDSYSRYRKQMAVKKYLAAVLGKRYKQRVKNK-NH2 (ligand) [PACAP 38 (SEQ ID NO: 4-NH2)] | 1.91 nM | 4.45 nM |  |
| FTDSYSRYRKQMAVKKYLAAVLGKRYKQRVKNK-NH2 [PACAP 6-38 (SEQ ID NO: 6-NH2)] | 8.35 nM | 39.1 nM | 6 to 10 times |
| FTDSYSRYRKQMAVKKYLAAVL-NH2 [PACAP 6-27 (SEQ ID NO: 7-NH2)] | 235 nM | 1030 nM |  |
